The text below walks through data of PMC3460628.

In the series the test system is T1, His-ChvI(D52E) D52E (Agrobacterium tumefaciens C58), ORF:0a874367.
T1 sequence: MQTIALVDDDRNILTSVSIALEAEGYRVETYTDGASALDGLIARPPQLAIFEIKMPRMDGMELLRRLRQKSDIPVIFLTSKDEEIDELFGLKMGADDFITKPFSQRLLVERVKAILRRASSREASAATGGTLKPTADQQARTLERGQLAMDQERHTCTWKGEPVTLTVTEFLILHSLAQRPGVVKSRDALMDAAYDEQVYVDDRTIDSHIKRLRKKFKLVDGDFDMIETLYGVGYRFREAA
As to the kind of experiment: EMSA. Background: Mobility shift assays separate free from complexed probe on a gel.

As to “TCGAGGAGTAGTCTATCCCCAGAAAATAGTAATGGATTTTTTGTAGTTACTTCCCTTACGTGAGGCTATTAATCAGACAGACTTATTCAAAATGTGTCTAAATTGTGGCGTCTACTCCCTAATCTAATCTGATAAAAAATAAACTTCGGGGTGGACAACCCGGTTTCATCATCATAGTTATTCCACGTCACGTTGTGGAATGAACCCGGGCAGGAGGCTCATTGCATGTCGGTACCCC (double strand) [imp-hcp intergenic region (T6SS regulatory region), 230 bp]”, the binding entry is reported as “binds”. In the case of “TCCGCATCCATGGGAATAGCAGTCTTTCCCCACCTTGCCTCCACGCTGGAGCAGCTTTTCGACAGGGCAGACTATGCCCTCTACCACGCCAAGAAAACCCGGCGTGGCGATGCCGTTCTGTTCGATGCGGAACACGAAAAGCAGATCAATATCGAAGCCCGCATTGAGCATCTGCTCAAGCAGAGCGATCTGAAAAACGAACTTTCGGTGATGTTTCAGCCGATCGTGGATATACGCGACGGAAGGATC (double strand) [atu4353 coding region control fragment]”, the binding result was “no binding”.
